Experimental data as given in patent publication US20240192215A1 (E AND S HEALTHCARE, published 2024).
Values belong to the binder of their own block, whether it stands above or below them.

How the values were obtained:
[1] = molecular target: T1, Peptide_013 (human); test: peptide microarray, 0.2 ug/mL
T1 construct: 15-mer on microarray; not native form, includes recombinant insert region
T1 peptide: HHHHHHVKQIESKTA
Description: (§1) 5, 1, 0.2, 0.04, 0.008 and 0.0016 μg/mL serial dilutions were incubated on a single multi-well microarray slide at 30° C. for 1 hour. The slide includes 21 individual mini-arrays (one mini-array per sample dilution).
(§2) DyLight 650 was used as a label. False-positive binding to a peptide was evaluated by performing one additional control incubation in which only a secondary antibody was applied on the same microarray slide. Before performing each step, the microarrays were washed with a washing buffer.

[2] = molecular target: T2, Peptide_014 (human); test: peptide microarray, 0.2 ug/mL
T2 construct: 15-mer on microarray; not native form, includes recombinant insert region
T2 peptide: HHHHHVKQIESKTAF
Description: as §1, §2

[3] = molecular target: T3, Peptide_015 (human); test: peptide microarray, 0.2 ug/mL
T3 construct: 15-mer on microarray; not native form, includes recombinant insert region
T3 peptide: HHHHVKQIESKTAFQ
Description: as §1, §2

[4] = molecular target: T4, Peptide_018 (human); test: peptide microarray, 0.2 ug/mL
T4 construct: 15-mer on microarray; not native form, includes recombinant insert region; also called HVKQIESKTAFQEAL
T4 peptide: HVKQIESKTAFQEAL
Description: as §1, §2

[5] = molecular target: T5, Peptide_023 (human); test: peptide microarray, 0.2 ug/mL
T5 construct: 15-mer of hTrx1 on microarray
T5 peptide: ESKTAFQEALDAAGD
Description: as §1, §2

[6] = molecular target: T6, Peptide_025 (human); test: peptide microarray, 0.2 ug/mL
T6 construct: 15-mer of hTrx1 on microarray
T6 peptide: KTAFQEALDAAGDKL
Description: as §1, §2

[7] = molecular target: T7, Peptide_051 (human); test: peptide microarray, 0.2 ug/mL
T7 construct: 15-mer of hTrx1 on microarray
T7 peptide: PCKMIKPFFHSLSEK
Description: as §1, §2

[8] = molecular target: T8, Peptide_084 (human); test: peptide microarray, 0.2 ug/mL
T8 construct: 15-mer of hTrx1 on microarray
T8 peptide: SECEVKCMPTFQFFK
Description: as §1, §2

[9] = molecular target: T9, Peptide_086 (human); test: peptide microarray, 0.2 ug/mL
T9 construct: 15-mer of hTrx1 on microarray
T9 peptide: CEVKCMPTFQFFKKG
Description: as §1, §2

[10] = molecular target: T10, Peptide_092 (human); test: peptide microarray, 0.2 ug/mL
T10 construct: 15-mer of hTrx1 on microarray
T10 peptide: PTFQFFKKGQKVGEF
Description: as §1, §2

[11] = molecular target: T11, Peptide_094 (human); test: peptide microarray, 0.2 ug/mL
T11 construct: 15-mer of hTrx1 on microarray
T11 peptide: FQFFKKGQKVGEFSG
Description: as §1, §2

[12] = molecular target: T12, Peptide_010; test: peptide microarray, anti-mouse IgG DyLight 650, MMC2 heatmap (Example 17)
T12 peptide: QHHHHHHHHVKQIES
Description: as §1, §2
(§3) To visualize the obtained results and compare binding regions across individual cultures, as shown in FIGS. 21A to 21D, heatmap diagrams were calculated. In FIGS. 21A to 21D, the fluorescence intensity is expressed in a color-coded manner, white indicates no binding, and red indicates strong binding. For all evaluations, the MMC2-value of the average pixel fluorescence for each peptide was calculated.

[13] = molecular target: T13, Peptide_026; test: as above
T13 peptide: TAFQEALDAAGDKLV
Description: as §1, §2, §3

[14] = molecular target: T14, Peptide_027; test: as above
T14 peptide: AFQEALDAAGDKLVV
Description: as §1, §2, §3

[15] = molecular target: T15, Peptide_029; test: as above
T15 peptide: QEALDAAGDKLVVVD
Description: as §1, §2, §3

[16] = molecular target: T16, Peptide_034; test: as above
T16 peptide: AAGDKLVVVDFSATW
Description: as §1, §2, §3

[17] = molecular target: T17, Peptide_035; test: as above
T17 peptide: AGDKLVVVDFSATWC
Description: as §1, §2, §3

[18] = molecular target: T18, Peptide_039; test: as above
T18 peptide: LVVVDFSATWCGPCK
Description: as §1, §2, §3

[19] = molecular target: T19, Peptide_040; test: as above
T19 peptide: VVVDFSATWCGPCKM
Description: as §1, §2, §3

[20] = molecular target: T20, Peptide_065; test: as above
T20 peptide: KYSNVIFLEVDVDDC
Description: as §1, §2, §3

[21] = molecular target: T21, Peptide_070; test: as above
T21 peptide: IFLEVDVDDCQDVAS
Description: as §1, §2, §3

[22] = molecular target: T22, Peptide_077; test: as above
T22 peptide: DDCQDVASECEVKCM
Description: as §1, §2, §3

[23] = molecular target: T23, Peptide_079; test: as above
T23 peptide: CQDVASECEVKCMPT
Description: as §1, §2, §3

[24] = molecular target: T24, Peptide_101; test: as above
T24 peptide: QKVGEFSGANKEKLE
Description: as §1, §2, §3

[25] = molecular target: T25, Peptide_102; test: as above
T25 peptide: KVGEFSGANKEKLEA
Description: as §1, §2, §3

[26] = molecular target: T26, Peptide_105; test: as above
T26 construct: also called EFSGANKEKLEATIN
T26 peptide: EFSGANKEKLEATIN
Description: as §1, §2, §3

[27] = molecular target: T27, Peptide_107; test: as above
T27 peptide: SGANKEKLEATINEL
Description: as §1, §2, §3

[28] = molecular target: T28, Peptide_004 (human); test: as above
T28 construct: 15-mer on microarray; not native form, recombinant insert region
T28 peptide: AADVHSQHHHHHHHH
Description: as §1, §2, §3

[29] = molecular target: T28, Peptide_004; test: peptide microarray, 0.2 ug/mL
Description: as §1, §2

[30] = molecular target: T29, Peptide_005 (human); test: peptide microarray, 0.2 ug/mL
T29 construct: 15-mer on microarray; not native form, recombinant insert region
T29 peptide: ADVHSQHHHHHHHHV
Description: as §1, §2

signal (blank-control = 1) [1]: 1.85
signal (blank-control = 1) [2]: 3.16
signal (blank-control = 1) [3]: 2.5
signal (blank-control = 1) [4]: 3.49
signal (blank-control = 1) [5]: 1.12
signal (blank-control = 1) [6]: 4.9
signal (blank-control = 1) [7]: 2.32
signal (blank-control = 1) [8]: 2.36
signal (blank-control = 1) [9]: 1.16
signal (blank-control = 1) [10]: 6.81
signal (blank-control = 1) [11]: 2.11
binding result [12]: no binding (tested: 5 ug/mL)
binding result [13]: no binding (tested: 5 ug/mL)
binding result [14]: no binding (tested: 5 ug/mL)
binding result [15]: no binding (tested: 5 ug/mL)
binding result [16]: no binding (tested: 5 ug/mL)
binding result [17]: no binding (tested: 5 ug/mL)
binding result [18]: binds
binding result [19]: no binding (tested: 5 ug/mL)
binding result [20]: no binding (tested: 5 ug/mL)
binding result [21]: no binding (tested: 5 ug/mL)
binding result [22]: no binding (tested: 5 ug/mL)
binding result [23]: no binding (tested: 5 ug/mL)
binding result [24]: no binding (tested: 5 ug/mL)
binding result [25]: no binding (tested: 5 ug/mL)
binding result [26]: no binding (tested: 5 ug/mL)
binding result [27]: no binding (tested: 5 ug/mL)
binding result [28]: no binding (tested: 5 ug/mL)
B1: monoclonal antibody B264 (antibody, mouse IgG1, kappa, V domains shown)
VH: QVQLQQSGAELARPGASVKMSCKASGYTFTSYTMHWVKQRPGQGLEWIGYINPTSDYTNYNQKFKDKATLTADKSSSTAYMQLSSLTSEDSAVYFCASEGGFLYYFDYWGQGTTLTVSS
VL: DVLMTQTPLSLPVSLGDQASISCRSSQSIVHSNGNTYLEWYLQKPGQSPKLLIYKVSNRFSGVPDRFSGSGSGTDFTLKISRVEAEDLGVYYCFQGSHVPYTFGGGTKLEIKR
notes: also called AB264; B264 (Trx1-mIgG1)

signal (blank-control = 1) [29]: 1.41
signal (blank-control = 1) [30]: 1.78
B2: monoclonal antibody B266-1 (antibody, human IgG1)
light: QIVLTQSPAIMSASPGEKVTMTCSASSRISYMYWYQQKPGTSPKRWIYDTSKLASGVPARFSGSGSGTSYSLTISTMEAEDAATYYCHQRSSYPTFGAGTKLELKSVAAPSVFIFPPSDEQLKSGTASVVCLLNNFYPREAKVQWKVDNALQSGNSQESVTEQDSKDSTYSLSSTLTLSKADYEKHKVYACEVTHQGLSSPVTKSFNRGEC
heavy: not shown
notes: B266 with the Fc part changed to human IgG1; also called B266-1 (Trx1-hIgG1); B266-1 (hTrx1-hIgG1)
